Target: JASPer protein (1-475) (Drosophila)
Assay: MST; label-free (Monolith NT.LabelFree); JASPer constant at 0.4 uM, reconstituted nucleosomes in a 16-step dilution series (0.5 nM up to 16 uM); 20 mM HEPES pH 7.5, 50 mM NaCl, 1 mM TCEP, 0.05% Tween 20; 24 C; fitted as specific binding with Hill slope

Substance	Kd [µM]
H3K36me2 mononucleosome (147 bp) (complex)	0.32
unmodified mononucleosome (147 bp, H3K36me0) (complex)	4
H3K36me3 mononucleosome (147 bp) (complex)	0.6
